Residue numbers refer to the chain shown, from its start.
T1: human C1s (human, UniProt P09871 16-688)
T1 construct: also called hC1s; serum-derived human C1s (CompTech)
T1 sequence: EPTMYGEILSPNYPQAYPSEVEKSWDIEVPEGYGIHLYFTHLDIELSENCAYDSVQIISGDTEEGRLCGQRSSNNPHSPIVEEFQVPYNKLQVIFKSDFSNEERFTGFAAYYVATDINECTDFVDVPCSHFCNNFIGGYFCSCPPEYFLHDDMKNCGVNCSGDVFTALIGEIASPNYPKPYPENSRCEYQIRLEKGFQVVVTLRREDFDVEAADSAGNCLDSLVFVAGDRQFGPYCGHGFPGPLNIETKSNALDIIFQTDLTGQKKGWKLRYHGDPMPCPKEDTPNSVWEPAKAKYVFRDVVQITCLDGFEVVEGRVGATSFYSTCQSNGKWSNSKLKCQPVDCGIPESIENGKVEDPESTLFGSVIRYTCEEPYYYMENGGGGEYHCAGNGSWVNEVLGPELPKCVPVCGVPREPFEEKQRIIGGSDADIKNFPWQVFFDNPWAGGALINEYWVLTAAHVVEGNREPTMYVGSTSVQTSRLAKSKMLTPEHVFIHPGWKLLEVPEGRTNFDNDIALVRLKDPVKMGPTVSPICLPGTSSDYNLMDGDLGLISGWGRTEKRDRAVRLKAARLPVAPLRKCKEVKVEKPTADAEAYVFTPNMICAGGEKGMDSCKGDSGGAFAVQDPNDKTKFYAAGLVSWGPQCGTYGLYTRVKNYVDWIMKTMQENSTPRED

B1: C1_IPN92H0033-SG4GK/IPN93L0030-SK1 (antibody, human IgG4 S228P, kappa, name in Kabat numbering, V domains shown)
VH: EVMLVESGGGLVKPGGSLRLSCAASGFTFSNYAMSWVRQAPGKGLEWVATISSGGSHTYYLDSVKGRFTISRDNSKDTLYLQMNSLRAEDTALYYCARLFTGHAMDYWGQGTLVTVSS
VL: QIVLTQSPATLSLSPGERATLSCTASSSVSSSYLHWYQQKPGKAPKLWIYSTSNLASGVPSRFSGSGSGTDYTLTISSLQPEDFATYYCHQYYRHHPITFGQGTKLEIKR
notes: also called IPN92H0033/IPN93L0030
B2: C1_IPN92H0038-SG4GK/IPN93L0028-SK1 (antibody, human IgG4 S228P, kappa, name in Kabat numbering, V domains shown)
VH: B1 VH with G66H
VL: B1 VL with Y93H, H96P
notes: also called IPN92H0038/IPN93L0028
B3: C1_IPN92H0038-SG4GK/IPN93L0021-SK1 (antibody, human IgG4 S228P, kappa, name in Kabat numbering, V domains shown)
VH: B1 VH with G66H
VL: B1 VL with Y93H, H95L, H96P
notes: also called IPN92H0038/IPN93L0021
B4: C1_IPN92H0033-SG4GK/IPN93L0031-SK1 (antibody, human IgG4 S228P, kappa, name in Kabat numbering, V domains shown)
VH: B1 VH
VL: B1 VL with Y93H
notes: also called IPN92H0033/IPN93L0031
B5: C1_IPN92H0038-SG4GK/IPN009VK3-SK1 (antibody, human IgG4 S228P, kappa, name in Kabat numbering, V domains shown)
VH: B1 VH with G66H
VL: B1 VL with H95L, H96P
notes: also called IPN92H0038/IPN009VK3
B6: C1_IPN92H0038-SG4GK/IPN93L0024-SK1 (antibody, human IgG4 S228P, kappa, name in Kabat numbering)
heavy: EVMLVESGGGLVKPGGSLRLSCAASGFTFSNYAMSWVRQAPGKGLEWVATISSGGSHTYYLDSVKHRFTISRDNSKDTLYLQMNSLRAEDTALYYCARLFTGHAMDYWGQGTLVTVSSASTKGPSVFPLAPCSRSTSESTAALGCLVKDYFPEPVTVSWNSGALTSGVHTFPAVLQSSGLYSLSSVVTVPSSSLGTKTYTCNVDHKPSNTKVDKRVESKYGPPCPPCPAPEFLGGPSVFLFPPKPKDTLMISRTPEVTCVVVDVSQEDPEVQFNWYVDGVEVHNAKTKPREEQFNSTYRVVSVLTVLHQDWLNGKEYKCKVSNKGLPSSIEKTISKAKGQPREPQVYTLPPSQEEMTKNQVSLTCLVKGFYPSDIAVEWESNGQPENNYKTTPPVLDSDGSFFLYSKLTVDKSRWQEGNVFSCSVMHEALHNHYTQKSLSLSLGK
light: QIVLTQSPATLSLSPGERATLSCTASSSVSSSYLHWYQQKPGKAPKLWIYSTSNLASGVPSRFSGSGSGTDYTLTISSLQPEDFATYYCHQYYRLHPITFGQGTKLEIKRTVAAPSVFIFPPSDEQLKSGTASVVCLLNNFYPREAKVQWKVDNALQSGNSQESVTEQDSKDSTYSLSSTLTLSKADYEKHKVYACEVTHQGLSSPVTKSFNRGEC
notes: also called IPN92H0038/IPN93L0024
B7: C1_IPN92H0038-SG4GK/IPN93L0029-SK1 (antibody, human IgG4 S228P, kappa, name in Kabat numbering, V domains shown)
VH: B1 VH with G66H
VL: B1 VL with Y93H, H95L
notes: also called IPN92H0038/IPN93L0029
B8: C1_IPN92H0038-SG4GK/IPN93L0023-SK1 (antibody, human IgG4 S228P, kappa, name in Kabat numbering, V domains shown)
VH: B1 VH with G66H
VL: B1 VL with H96P
notes: also called IPN92H0038/IPN93L0023
B9: C1_IPN92H0048-SG4GK/IPN93L0024-SK1 (antibody, human IgG4 S228P, kappa, name in Kabat numbering, V domains shown)
VH: B1 VH with F27H
VL: B1 VL with H95L
notes: also called IPN92H0048/IPN93L0024
B10: C1_IPN92H0038-SG4GK/IPN93L0030-SK1 (antibody, human IgG4 S228P, kappa, name in Kabat numbering, V domains shown)
VH: B1 VH with G66H
VL: B1 VL
notes: also called IPN92H0038/IPN93L0030
B11: C1_IPN92H0038-SG4GK/IPN93L0031-SK1 (antibody, human IgG4 S228P, kappa, name in Kabat numbering, V domains shown)
VH: B1 VH with G66H
VL: B1 VL with Y93H
notes: also called IPN92H0038/IPN93L0031

Key:
human C1s [1] = target: T1, human C1s; test: SPR, Ab captured; pH 5.8, 1.2 mM Ca
Experimental: (§1) All variants were transiently expressed and purified by the method described above. The binding affinity of each histidine-substituted variant at pH 7.4 and pH 5.8 was determined at 37 degrees C. using Biacore T200 instrument (GE Healthcare). Recombinant Protein A/G (Pierce) was immobilized onto all flow cells of a CM4 sensor chip using an amine coupling kit (GE Healthcare). Antibodies and analytes were prepared in 7(+) buffer (20 mM ACES, 150 mM NaCl, 1.2 mM CaCl2, 0.05% Tween 20, 0.005% NaN3, pH 7.4), 5(+) buffer (20 mM ACES, 150 mM NaCl, 1.2 mM CaCl2, 0.05% Tween 20, 0.005% NaN3, pH 5.8), or 5(−) buffer (20 mM ACES, 150 mM NaCl, 3 micro M CaCl2, 0.05% Tween 20, 0.005% NaN3, pH 5.8). Each antibody was captured onto the sensor surface by protein A/G. Antibody capture levels were aimed at 200 resonance unit (RU). Serum-derived human C1s (CompTech) or recombinant C1s prepared in EXAMPLE 1 was injected at 50 nM, followed by dissociation. The sensor surface was regenerated in each cycle with 10 mM Glycine-HCl, pH 1.5. […] The ratio of KD 5.8+ to KD 7.4+(“KD 5+/7+”) and that of KD 5.8− to KD 7.4+(“KD 5−/7+”) were calculated. When the KD 5+/7+ or KD 5−/7+ of a variant is larger than that of the parent antibody IPN009VH2-SG4GK/IPN009VK3-SK1, that variant is considered to be “pH”- or “pH and Ca”-dependent, respectively. When binding response in 5(+) buffer and/or in 5(−) buffer of a variant is much lower than that of IPN09VH2/IPN009VK3, that variant is also considered as “pH”- and/or “pH and Ca”-dependent. Therefore, such mutations are effective to generate “pH”- and/or “pH and Ca”-dependent antibody. To further enhance “pH” and/or “pH and Ca” dependency, a combination of histidine mutations was conducted. Antibodies with combinations of histidine mutations were evaluated using Biacore by the method described above.

human C1s [2] = target: T1, human C1s; test: SPR; KD pH 5.8 1.2 mM Ca / KD pH 7.4 1.2 mM Ca
Experimental: as §1

human C1s [3] = target: T1, human C1s; test: SPR; KD pH 5.8 3 uM Ca / KD pH 7.4 1.2 mM Ca
Experimental: as §1

human C1s [4] = target: T1, human C1s; test: SPR, Ab captured; pH 5.8, 3 uM Ca
Experimental: as §1

human C1s [5] = target: T1, human C1s; test: SPR, Ab captured; pH 7.4, 1.2 mM Ca
Experimental: as §1

| Binder | Kd (human C1s [1]) [nM] | koff (human C1s [1]) [s⁻¹] | kon (human C1s [1]) [M⁻¹ s⁻¹] | KD 5(+)/7(+) (human C1s [2]) | KD 5(-)/7(+) (human C1s [3]) | Kd (human C1s [4]) [nM] | koff (human C1s [4]) [s⁻¹] | kon (human C1s [4]) [M⁻¹ s⁻¹] | Kd (human C1s [5]) [nM] | koff (human C1s [5]) [s⁻¹] | kon (human C1s [5]) [M⁻¹ s⁻¹] |
| --- | --- | --- | --- | --- | --- | --- | --- | --- | --- | --- | --- |
| B1 | 89.3 | 0.0449 | 503000 | 3.7 | 106 | 2560 | 0.0603 | 23500 | 24.2 | 0.0146 | 603000 |
| B2 | 17.7 | 0.00789 | 445000 | 7.5 | 11.6 | 27.3 | 0.0174 | 637000 | 2.36 | 0.00125 | 528000 |
| B3 | 3.53 | 0.00224 | 634000 | 3.7 | 10.6 | 10.2 |  |  | 0.958 | 0.000477 | 498000 |
| B4 |  | 0.00209 | 807000 | 0.7 | 3.9 |  | 0.00934 | 674000 |  | 0.00187 | 522000 |
| B5 | 0.668 | 0.000463 | 693000 | 1 | 12.3 | 8.33 | 0.00538 | 646000 | 0.679 | 0.000282 | 415000 |
| B6 | 8.19 | 0.00418 | 511000 | 5.2 | 3.5 | 5.47 |  |  | 1.57 | 0.000596 | 380000 |
| B7 | 24.2 | 0.0131 | 539000 | 3.4 | 0.9 | 6.62 | 0.00522 | 789000 | 7.15 | 0.003 | 419000 |
| B8 | 5.33 | 0.00279 | 524000 | 2.8 | 6.3 | 12.1 |  |  | 1.91 | 0.000808 | 422000 |
| B9 | 12.1 | 0.00637 | 528000 | 3.9 | 1.1 | 3.36 |  |  | 3.14 | 0.00082 | 261000 |
| B10 | 70.3 | 0.017 | 241000 | 3.5 | 30.1 | 599 | 0.00538 | 8980 | 19.9 | 0.0111 | 558000 |
| B11 | 1.24 | 0.00146 | 1.18e+06 | 0.2 | 0.7 | 3.9 | 0.00476 | 1.22e+06 | 5.22 | 0.0396 | 7.59e+06 |
